Residue numbers refer to the chain shown, from its start. Where “and” joins values, the source holds several entries; their conditions need not be identical. Identical values can stand only once. Like-named read-outs stand apart in the source and are kept apart here. Blank lines part the entries; values can stand above or below the molecule they belong to.
How the values were obtained:
[1] = molecular target: human CD64 (FcγRI) (human) (UniProt P12314); experiment: SPR; captured on biot-IZ-hCD40L surface, soluble FcR as analyte; pH 7.1
[2] = molecular target: human CD16a (FcγRIIIa) (human) (UniProt P08637); experiment: as above
human FcRn (human) = human FcRn (human) (UniProt P55899); experiment: SPR; captured on biot-IZ-hCD40L surface, soluble FcR as analyte; pH 6
[3] = molecular target: cynomolgus monkey CD40L on cells (cynomolgus monkey) (UniProt G7Q1T4); experiment: in vivo receptor occupancy on monkey PBMC, 20 mg/kg IV, 48 h post-dose
[4] = molecular target: human CD32a (FcγRIIa), soluble (human) (UniProt P12318); experiment: SPR; biphasic binding, steady state fit to the dominant binding event; pH 7.1
[5] = molecular target: cynomolgus monkey CD40L on cells (cynomolgus monkey) (UniProt G7Q1T4); experiment: in vivo receptor occupancy on monkey PBMC, 20 mg/kg IV, through 1032 h
[6] = molecular target: human isoleucine zipper-CD40L (IZ-hCD40L) (human) (UniProt P29965); experiment: cell-based or functional assay
[7] = molecular target: T1, human CD40L, membrane-bound on cells (human, UniProt P29965 1-261); experiment: cell-based or functional assay
T1 sequence: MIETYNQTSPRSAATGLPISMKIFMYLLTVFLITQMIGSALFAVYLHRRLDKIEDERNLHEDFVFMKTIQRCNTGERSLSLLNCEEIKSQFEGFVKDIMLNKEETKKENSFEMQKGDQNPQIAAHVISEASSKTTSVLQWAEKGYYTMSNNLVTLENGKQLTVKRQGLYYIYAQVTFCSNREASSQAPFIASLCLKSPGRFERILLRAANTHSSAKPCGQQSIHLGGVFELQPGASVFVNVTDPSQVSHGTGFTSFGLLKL

mouse CD40L (mouse) = mouse CD40L (mouse) (UniProt P27548); experiment: cell-based or functional assay
[8] = molecular target: human isoleucine zipper-CD40L (IZ-hCD40L) (human) (UniProt P29965); experiment: cell-based or functional assay; remark: listed apart in the source
[9] = molecular target: T1, human CD40L, membrane-bound on cells; experiment: cell-based or functional assay; remark: listed apart in the source
[10] = molecular target: T2, human isoleucine zipper-CD40L (IZ-hCD40L) (human, UniProt P29965 113-261); experiment: cell-based or functional assay
T2 sequence: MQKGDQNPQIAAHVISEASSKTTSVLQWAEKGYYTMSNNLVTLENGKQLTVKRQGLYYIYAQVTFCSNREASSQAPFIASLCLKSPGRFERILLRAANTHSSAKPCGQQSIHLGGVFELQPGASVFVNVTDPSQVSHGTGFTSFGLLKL

[11] = molecular target: T1, human CD40L, membrane-bound on cells; experiment: cell-based or functional assay; remark: listed apart in the source
[12] = molecular target: T3, human CD40L monomer triple mutant (T211E, S222Y, H224K, [108-261]) (human, UniProt P29965 108-261); experiment: SPR; dAb-CT-long captured on anti-human IgG Fc surface, CD40L monomer as analyte
T3 construct: also called monomeric human CD40L
T3 chain: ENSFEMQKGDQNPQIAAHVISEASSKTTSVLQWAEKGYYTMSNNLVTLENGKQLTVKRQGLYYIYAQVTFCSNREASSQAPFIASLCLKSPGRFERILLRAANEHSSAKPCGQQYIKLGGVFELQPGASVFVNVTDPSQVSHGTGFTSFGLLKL

[13] = molecular target: T4, biotinylated IZ-hCD40L (biot-IZ-hCD40L) (human, UniProt P29965 113-261, biotinylated); experiment: SPR (Biacore), 25 C, 1:1 Langmuir; monovalent dAb
T4 construct: biotinylated version of IZ-hCD40L captured on streptavidin chip; also called biotinylated CD40L; not shown: N-terminal isoleucine zipper motif
T4 sequence: T2 sequence
Excerpt: The SPR experiments utilized a hCD40L construct containing an N-terminal isoleucine zipper motif (IZ-hCD40L) which facilitates the specific assembly of the CD40L molecule into the native trimeric form.

[14] = molecular target: T2, human isoleucine zipper-CD40L …; experiment: cell-based or functional assay; remark: listed apart in the source
[15] = molecular target: T1, human CD40L, membrane-bound on cells; experiment: cell-based or functional assay; remark: listed apart in the source

Sequence of mouse CD40L (mouse) (P27548 112-260 limits assumed): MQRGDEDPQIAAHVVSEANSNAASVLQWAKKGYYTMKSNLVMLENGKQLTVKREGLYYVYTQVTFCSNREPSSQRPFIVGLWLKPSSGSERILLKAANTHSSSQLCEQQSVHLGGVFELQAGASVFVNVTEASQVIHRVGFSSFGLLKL
Sequence of human CD32a (FcγRIIa), soluble (human) (P12318 36-218 limits assumed): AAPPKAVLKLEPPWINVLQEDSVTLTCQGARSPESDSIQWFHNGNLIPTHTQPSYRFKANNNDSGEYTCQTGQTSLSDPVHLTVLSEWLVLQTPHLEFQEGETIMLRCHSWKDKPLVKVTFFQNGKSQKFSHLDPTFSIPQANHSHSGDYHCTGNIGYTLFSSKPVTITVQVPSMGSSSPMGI
Sequence of human CD64 (FcγRI) (human) (P12314 16-288 limits assumed): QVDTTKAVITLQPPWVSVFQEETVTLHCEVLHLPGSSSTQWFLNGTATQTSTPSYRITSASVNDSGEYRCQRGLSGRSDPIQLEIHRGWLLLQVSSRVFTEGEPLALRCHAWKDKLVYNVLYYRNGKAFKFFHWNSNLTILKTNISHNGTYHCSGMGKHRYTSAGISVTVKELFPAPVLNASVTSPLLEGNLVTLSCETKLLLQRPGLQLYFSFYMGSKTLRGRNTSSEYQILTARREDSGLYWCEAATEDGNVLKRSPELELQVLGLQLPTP
Sequence of human CD16a (FcγRIIIa) (human) (P08637 17-208 limits assumed): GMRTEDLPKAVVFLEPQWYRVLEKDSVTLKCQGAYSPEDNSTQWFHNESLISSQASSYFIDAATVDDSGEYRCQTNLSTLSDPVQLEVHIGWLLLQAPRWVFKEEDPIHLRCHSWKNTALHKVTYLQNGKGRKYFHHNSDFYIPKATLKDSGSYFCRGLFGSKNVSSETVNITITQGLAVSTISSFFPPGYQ

B1: 2h572-635 Fc (Fc fusion, not shown: a dimerising Fc or GST)
chain: EVQLLESGGGLVQPGGSLRLSCAASGFTFNWELMGWARQAPGKGLEWVSGIEGPGDVTYYADSVKGRFTISRDNSKNTLYLQMNSLRAEDTAVYYCVKVGKDSKSDYRGQGTLVTVSS
hIZCD40L-driven Human B Cell Proliferation EC50 [8]: 2 nM
CHO-hCD40L-driven DC Activation IL-12 EC50 [9]: 0.445 nM
CHO-hCD40L-driven Human B Cell Proliferation EC50 [9]: 2.5 nM
T-B cell MLR EC50 [9]: 0.16 nM
T-B cell MLR IL-6 EC50 [9]: 0.11 nM

B2: 2h572-619-Ctshort Fc (Fc fusion, not shown: a dimerising Fc or GST)
chain: B1 chain with E32Q, A37V, K104R
hIZCD40L-driven Human B Cell Proliferation EC50 [8]: 1.5 nM
CHO-hCD40L-driven DC Activation IL-12 EC50 [9]: 1.8 nM
CHO-hCD40L-driven Human B Cell Proliferation EC50 [9]: 2 nM
T-B cell MLR EC50 [9]: 0.4 nM
T-B cell MLR IL-6 EC50 [9]: 0.3 nM

B3: 2h572-635-CT Long Fc (Fc fusion)
chain: B1 chain
notes: not shown: linker and CT Long Fc (CT-L2)
hIZCD40L-driven Human B Cell Proliferation EC50 [10]: 3 nM
CHO-hCD40L-driven DC Activation IL-12 EC50 [11]: 1.6 nM
CHO-hCD40L-driven Human B Cell Proliferation EC50 [11]: 2 nM
T-B cell MLR EC50 [11]: 0.149 nM
T-B cell MLR IL-6 EC50 [11]: 0.13 nM
binding result [12]: no binding

B5: 2h572-608-N297Qshort Fc (Fc fusion, not shown: a dimerising Fc or GST)
chain: B1 chain with D102E, K104N
hIZCD40L-driven Human B Cell Proliferation EC50 [8]: 1 nM
CHO-hCD40L-driven DC Activation IL-12 EC50 [9]: 0.93 nM
CHO-hCD40L-driven Human B Cell Proliferation EC50 [9]: 2 nM

B6: 2h572-633-CT-Fc SP5 (Fc fusion, not shown: a dimerising Fc or GST)
chain: B1 chain with S103A
hIZCD40L-driven Human B Cell Proliferation EC50 [8]: 5 nM
CHO-hCD40L-driven DC Activation IL-6 EC50 [9]: 1.5 nM
CHO-hCD40L-driven DC Activation IL-12 EC50 [9]: 2.3 nM
CHO-hCD40L-driven DC Activation TNF EC50 [9]: 2.9 nM
CHO-hCD40L-driven Human B Cell Proliferation EC50 [9]: 1 nM
T-B cell MLR EC50 [9]: 0.161 nM
T-B cell MLR IL-6 EC50 [9]: 0.13 nM

B7: 2h572-619-N297Qshort Fc (Fc fusion, not shown: a dimerising Fc or GST)
chain: B1 chain with E32Q, A37V, K104R
hIZCD40L-driven Human B Cell Proliferation EC50 [8]: 0.9 nM
CHO-hCD40L-driven DC Activation IL-12 EC50 [9]: 1.2 nM
CHO-hCD40L-driven Human B Cell Proliferation EC50 [9]: 1 nM
T-B cell MLR EC50 [9]: 0.226 nM and 0.216 nM
T-B cell MLR IL-6 EC50 [9]: 0.1 nM

B8: 2h572-619-N297Qlong Fc (Fc fusion, not shown: a dimerising Fc or GST)
chain: B1 chain with E32Q, A37V, K104R
hIZCD40L-driven Human B Cell Proliferation EC50 [8]: 0.98 nM
CHO-hCD40L-driven DC Activation IL-12 EC50 [9]: 1.1 nM
CHO-hCD40L-driven Human B Cell Proliferation EC50 [9]: 2 nM
T-B cell MLR EC50 [9]: 0.48 nM and 0.474 nM
T-B cell MLR IL-6 EC50 [9]: 0.22 nM and 0.11 nM

B9: 2h572-619-Ctlong Fc (Fc fusion)
chain: B1 chain with E32Q, A37V, K104R
notes: as for B3
hIZCD40L-driven Human B Cell Proliferation EC50 [10]: 1.6 nM
CHO-hCD40L-driven DC Activation IL-6 EC50 [11]: 1.5 nM
CHO-hCD40L-driven DC Activation IL-12 EC50 [11]: 1.4 nM
CHO-hCD40L-driven DC Activation IL-23 EC50 [11]: 1.5 nM
CHO-hCD40L-driven DC Activation TNF EC50 [11]: 2 nM
CHO-hCD40L-driven Human B Cell Proliferation EC50 [11]: 2 nM
T-B cell MLR EC50 [11]: 0.72 nM
T-B cell MLR IL-6 EC50 [11]: 0.43 nM
binding result [12]: no binding

B10: 2h572-608-CT Long Fc (Fc fusion)
chain: B1 chain with D102E, K104N
notes: as for B3
hIZCD40L-driven Human B Cell Proliferation EC50 [10]: 2 nM
CHO-hCD40L-driven DC Activation IL-12 EC50 [11]: 1.6 nM
CHO-hCD40L-driven Human B Cell Proliferation EC50 [11]: 2 nM
T-B cell MLR EC50 [11]: 0.468 nM
T-B cell MLR IL-6 EC50 [11]: 0.38 nM
binding result [12]: no binding

B11: 2h572-6-CT Long Fc (Fc fusion)
chain: B1 chain with E32Q, A37V, D102E, K104N
notes: as for B3
hIZCD40L-driven Human B Cell Proliferation EC50 [10]: 1 nM
CHO-hCD40L-driven DC Activation IL-12 EC50 [11]: 3 nM
CHO-hCD40L-driven Human B Cell Proliferation EC50 [11]: 6 nM
T-B cell MLR EC50 [11]: 13.6 nM
T-B cell MLR IL-6 EC50 [11]: 8.1 nM
binding result [12]: no binding

B12: 2h572-634-CT Long Fc (Fc fusion)
chain: B1 chain with K104R
notes: as for B3
hIZCD40L-driven Human B Cell Proliferation EC50 [10]: 2 nM
CHO-hCD40L-driven DC Activation IL-12 EC50 [11]: 1.5 nM
CHO-hCD40L-driven Human B Cell Proliferation EC50 [11]: 1 nM
T-B cell MLR EC50 [11]: 0.162 nM
T-B cell MLR IL-6 EC50 [11]: 0.13 nM
binding result [12]: no binding

B13: 2h572-614-CT Long Fc (Fc fusion)
chain: B1 chain with E32Q, A37V, S103A
notes: as for B3
hIZCD40L-driven Human B Cell Proliferation EC50 [10]: 2 nM
CHO-hCD40L-driven DC Activation IL-12 EC50 [11]: 1.4 nM
CHO-hCD40L-driven Human B Cell Proliferation EC50 [11]: 2 nM
T-B cell MLR EC50 [11]: 0.283 nM
T-B cell MLR IL-6 EC50 [11]: 0.25 nM
binding result [12]: no binding

B14: 2h572-633-CT Long Fc (Fc fusion)
chain: B1 chain with S103A
notes: as for B3
hIZCD40L-driven Human B Cell Proliferation EC50 [10]: 3 nM
CHO-hCD40L-driven DC Activation IL-6 EC50 [11]: 1.3 nM
CHO-hCD40L-driven DC Activation IL-12 EC50 [11]: 1.9 nM
CHO-hCD40L-driven DC Activation IL-23 EC50 [11]: 1.2 nM
CHO-hCD40L-driven DC Activation TNF EC50 [11]: 1.7 nM
CHO-hCD40L-driven Human B Cell Proliferation EC50 [11]: 1 nM
T-B cell MLR EC50 [11]: 0.174 nM
T-B cell MLR IL-6 EC50 [11]: 0.13 nM
binding result [12]: no binding

Second part, the molecule after the results:

Kd [1]: < 0.05 nM
Kd [2]: 240 nM
Kd (human FcRn (human)): 590 nM
mean peak receptor occupancy [3]: 100%
Kd [4]: 100 nM
receptor occupancy [5]: > 97%
Molecule: 5c8-IgG1 (antibody)

Trimer B cell Assay EC50 [6]: 8 nM
CHO-CD40L B cell Assay EC50 [7]: 2 nM
CHO-CD40L DC Assay IL-12 EC50 [7]: 2 nM
T-B MLR EC50 [7]: 0.54 nM
T-B MLR IL-6 EC50 [7]: 0.23 nM
Molecule: 5c8 mAb (antibody)

CHO-CD40L B cell Assay EC50 (mouse CD40L (mouse)): 0.6 nM
CHO-CD40L DC Assay IL-6 EC50 (mouse CD40L (mouse)): 0.6 nM
Trimer B cell Assay EC50 (mouse CD40L (mouse)): 1.7 nM
Molecule: MR-1 (antibody)

Kd [13]: 7.8 nM
koff [13]: 0.0081 s⁻¹
kon [13]: 1e+06 M⁻¹ s⁻¹
hIZCD40L-driven Human B Cell Proliferation EC50 [14]: 20 nM
CHO-hCD40L-driven DC Activation IL-12 EC50 [15]: 53 nM
B4: BMS2h-572-633 (other)
VH: B1 chain with S103A
notes: VH dAb, monovalent

hIZCD40L-driven Human B Cell Proliferation EC50 [8]: 1 nM
CHO-hCD40L-driven DC Activation IL-12 EC50 [9]: 0.13 nM
CHO-hCD40L-driven Human B Cell Proliferation EC50 [9]: 0.7 nM
T-B cell MLR EC50 [9]: 6 nM
B15: 2h719-2 Fc (Fc fusion, not shown: a dimerising Fc or GST)
chain: EVQLLESGGGLVQPGGSLRLSCAASGFTFKRYEMMWVRQAPGKGLEWVSSISSDGSFTYYADSVKGRFTISRDNSKNTLYLQMNSLRAEDTAVYYCAEPFTEFDYWGHGTLVTVSS

hIZCD40L-driven Human B Cell Proliferation EC50 [8]: 1.8 nM
CHO-hCD40L-driven DC Activation IL-12 EC50 [9]: 0.66 nM
CHO-hCD40L-driven Human B Cell Proliferation EC50 [9]: 1.7 nM
B16: 2h719-202-N297Qshort Fc (Fc fusion, not shown: a dimerising Fc or GST)
chain: B15 chain with R31K

From patent publication US20160075790A1 (Bristol-Myers Squibb, published 2016)
